Measured values as given in PMC1976466 (Nucleic Acids Research, 2007).

B1: GST-HMGB1-ΔC (HMGB1 di-domain A+B, residues 1-180) (domain or fragment, rat, UniProt P63159 1-180, looked up)
chain: MGKGDPKKPRGKMSSYAFFVQTCREEHKKKHPDASVNFSEFSKKCSERWKTMSAKEKGKFEDMAKADKARYEREMKTYIPPKGETKKKFKDPNAPKRPPSAFFLFCSEYRPKIKGEHPGLSIGDVAKKLGEMWNNTAADDKQPYEKKAAKLKEKYEKDIAAYRAKGKPDAAKKGVVKAEK
B2: GST-HMGB1 domain A (residues 1-88) (domain or fragment, rat, UniProt P63159 1-88, looked up)
chain: MGKGDPKKPRGKMSSYAFFVQTCREEHKKKHPDASVNFSEFSKKCSERWKTMSAKEKGKFEDMAKADKARYEREMKTYIPPKGETKKK
B3: GST-HMGB1 domain B (residues 85-180) (domain or fragment, rat, UniProt P63159 85-180, looked up)
chain: TKKKFKDPNAPKRPPSAFFLFCSEYRPKIKGEHPGLSIGDVAKKLGEMWNNTAADDKQPYEKKAAKLKEKYEKDIAAYRAKGKPDAAKKGVVKAEK
B4: 36-bp duplex oligo_1/oligo_2 (dsDNA)
DNA 1: ATGAAATCTAACAATGCGCTCATCGTCATCCTCGGC
DNA 2: GCCGAGGATGACGATGAGCGCATTGTTAGATTTCAT

Key:
human topoisomerase IIα = human topoisomerase IIα (human, UniProt P11388 1-1531); experiment: pull-down
[1] = molecular target: DNA topoisomerase II alpha (Homo sapiens, UniProt P11388 1-1531); experiment: EMSA
Chain of DNA topoisomerase II alpha (P11388 whole entry): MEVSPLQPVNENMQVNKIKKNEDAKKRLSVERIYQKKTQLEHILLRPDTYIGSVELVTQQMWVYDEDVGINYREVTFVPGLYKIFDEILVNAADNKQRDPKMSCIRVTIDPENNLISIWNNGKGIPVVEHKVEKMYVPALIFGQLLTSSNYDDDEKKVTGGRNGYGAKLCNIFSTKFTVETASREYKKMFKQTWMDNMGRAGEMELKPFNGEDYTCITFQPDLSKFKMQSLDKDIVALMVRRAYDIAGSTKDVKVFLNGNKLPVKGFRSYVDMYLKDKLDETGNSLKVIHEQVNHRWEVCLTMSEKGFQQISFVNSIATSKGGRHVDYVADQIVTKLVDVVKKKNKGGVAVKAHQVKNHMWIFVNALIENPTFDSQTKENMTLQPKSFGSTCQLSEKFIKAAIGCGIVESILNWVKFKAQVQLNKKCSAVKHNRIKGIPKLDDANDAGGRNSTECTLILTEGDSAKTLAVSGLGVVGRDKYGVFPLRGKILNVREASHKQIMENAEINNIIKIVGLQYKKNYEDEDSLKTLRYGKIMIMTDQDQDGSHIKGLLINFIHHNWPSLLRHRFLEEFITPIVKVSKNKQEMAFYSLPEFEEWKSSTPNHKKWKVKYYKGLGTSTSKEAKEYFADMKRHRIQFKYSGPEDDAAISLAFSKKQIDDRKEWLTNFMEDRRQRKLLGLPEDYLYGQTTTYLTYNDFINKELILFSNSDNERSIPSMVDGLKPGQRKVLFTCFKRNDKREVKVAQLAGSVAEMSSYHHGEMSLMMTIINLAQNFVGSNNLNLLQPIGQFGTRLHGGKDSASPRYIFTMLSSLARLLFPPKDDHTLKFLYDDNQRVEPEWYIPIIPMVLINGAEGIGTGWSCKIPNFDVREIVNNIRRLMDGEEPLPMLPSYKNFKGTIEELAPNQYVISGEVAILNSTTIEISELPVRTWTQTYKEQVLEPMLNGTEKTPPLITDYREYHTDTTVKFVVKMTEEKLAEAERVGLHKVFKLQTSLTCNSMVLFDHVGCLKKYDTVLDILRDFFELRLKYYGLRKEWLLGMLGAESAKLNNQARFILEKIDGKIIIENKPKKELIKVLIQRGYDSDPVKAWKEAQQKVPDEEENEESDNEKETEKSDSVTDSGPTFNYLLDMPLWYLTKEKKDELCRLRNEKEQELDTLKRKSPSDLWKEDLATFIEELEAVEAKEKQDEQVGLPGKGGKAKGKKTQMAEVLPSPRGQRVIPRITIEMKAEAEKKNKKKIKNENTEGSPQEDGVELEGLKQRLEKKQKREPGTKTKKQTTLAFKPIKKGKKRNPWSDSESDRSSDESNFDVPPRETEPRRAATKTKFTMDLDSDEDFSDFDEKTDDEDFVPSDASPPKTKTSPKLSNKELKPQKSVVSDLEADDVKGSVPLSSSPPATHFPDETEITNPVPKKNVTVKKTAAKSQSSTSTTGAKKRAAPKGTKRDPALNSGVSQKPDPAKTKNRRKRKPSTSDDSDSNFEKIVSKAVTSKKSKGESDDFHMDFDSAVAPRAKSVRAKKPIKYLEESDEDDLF

Chain of human topoisomerase IIα (P11388 whole entry): as above

Binder | binding result (human topoisomerase IIα) | binding signal [1]
B1 | binds | –
B2 | binds | –
B3 | binds | –
B4 | – | ~10 fold increase in topo IIα binding vs no HMGB1 (up to)
